Results reported in US20090181009A1 (ARCA BIOPHARMA, published 2009).

T1: human NTB-A (full-length, on cells) (human, UniProt Q96DU3 22-332)
T1 sequence: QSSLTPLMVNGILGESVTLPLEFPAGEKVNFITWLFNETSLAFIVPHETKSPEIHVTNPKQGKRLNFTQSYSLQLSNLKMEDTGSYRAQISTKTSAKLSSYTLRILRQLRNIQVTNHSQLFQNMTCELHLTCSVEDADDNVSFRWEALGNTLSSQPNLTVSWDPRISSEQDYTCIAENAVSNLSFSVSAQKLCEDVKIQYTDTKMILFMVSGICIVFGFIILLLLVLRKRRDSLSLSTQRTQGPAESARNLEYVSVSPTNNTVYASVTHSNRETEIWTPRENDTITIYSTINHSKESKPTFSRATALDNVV

T2: NTB-A Δ5 deletion construct (human, UniProt Q96DU3 22-64)
T2 construct: Expressed in 293 cells and read by flow cytometry
T2 chain: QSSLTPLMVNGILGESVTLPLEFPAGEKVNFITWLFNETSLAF

T3: NTB-A Δ4 deletion construct (human, UniProt Q96DU3 22-94)
T3 construct: Expressed in 293 cells and read by flow cytometry
T3 sequence: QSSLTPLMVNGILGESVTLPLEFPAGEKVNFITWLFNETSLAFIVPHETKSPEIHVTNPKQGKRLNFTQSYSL

T4: NTB-A extracellular domain fused to a C-terminal tag of V5-His (NTB-A-ECD-V5His) (human)
T4 construct: Produced in HEK-293 cells; also called recombinant NTB-A protein; NTB-A V5-6His
T4 chain: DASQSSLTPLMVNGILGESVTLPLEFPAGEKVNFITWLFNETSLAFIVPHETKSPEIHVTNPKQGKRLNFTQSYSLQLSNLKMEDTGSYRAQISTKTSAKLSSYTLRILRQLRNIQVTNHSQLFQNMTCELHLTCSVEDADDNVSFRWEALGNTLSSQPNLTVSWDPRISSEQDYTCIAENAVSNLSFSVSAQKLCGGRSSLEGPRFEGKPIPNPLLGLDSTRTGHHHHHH


Legend:
[1] = target: T1, human NTB-A (full-length, on cells); test: cell-based or functional assay
[2] = target: T2, NTB-A Δ5 deletion construct; test: flow cytometry on 293 cells expressing the deletion construct
[3] = target: T3, NTB-A Δ4 deletion construct; test: as above
[4] = target: T4, NTB-A extracellular domain fused to a …; test: SPR (BIAcore), mAb captured by anti-mouse mAb, antigen in solution, 25° C.
Experimental: (§1) Kinetic rate constants (kₐ and kd) were determined using surface plasmon resonance and affinities (KD) were then calculated from the rate constants (kd/kₐ). Surface plasmon resonance was carried out on a BIAcore system (Biacore International AB, Uppsala, Sweden). […] Antigen was diluted to a starting concentration of 46 nM and tested for binding to the mAb samples using a 3-fold dilution series. Each of 5 concentrations was tested twice except the highest concentration which was tested 5 times in total, two times with a short dissociation of 300 seconds followed by three times with a dissociation of 60 minutes. The data sets from the long dissociation experiments were globally fit with the shorter […] experiments to determine binding constants for the interactions. The analysis was carried out in HBS, pH 7.4 buffer at 25° C. (Canziani et al, Anal. Biochem. 352:301-307 […]).

[5] = target: T4, NTB-A extracellular domain fused to a …; test: SPR (BIAcore), mAb captured by anti-mouse mAb, antigen in solution, 25° C.; KD = kd/ka
Experimental: as §1

Binder | EC50 of complement-dependent cytotoxicity (CDC) on CA46 cells [1] [ng/mL] | binding result [2] | binding result [3] | koff [4] [s⁻¹] | kon [4] [M⁻¹ s⁻¹] | EC50 of CDC on cells from CLL patients [1] [ng/mL] | Kd [5] [nM]
anti-NTB-A monoclonal antibody 994.1 (antibody, mouse IgG2b, V domains shown, Murine IgG2b from a hybridoma; also called ATCC Deposit No. PTA-7831) VH: QIQLVQSGPDLKNPGKTVKISCKASGYTFTNFGMNWVKQSPERGLKWMGWINTYNGKPTYADDFKGQFAFSLETSATTAYLQINNLKNEDTAAYFCAKRGGTVDFGYWGQGTTLTVSS VL: EVVLTQSPTTMAASPGEKITVTCSASSPISSNFLHWYQQKPGFSPKLFIYRTSILASGVPARFSGSGSGTSFSLTIGAMEAEDVAAYYCQQGIYMPLTFGAGTKLELKR | ~10 | no binding | no binding | – | – | – | –
anti-NTB-A monoclonal antibody 480.12 (antibody, mouse IgG2b, V domains shown, Murine IgG2b from a hybridoma; also called ATCC Deposit No. PTA-7832) VH: QIQLVQSGPELKKPGETVKISCKASGYTFTNFGMNWVKQAPGKGLKWMGWINTYSGEATYADDFKGRFAFSLETSASTAFLQISNLKNEDTATYFCARRGGTAEFDYWGQGTPLTVSSA VL: EIVLTQSPTTVAASPGEKITITCSASSSISSNFLHWYQQKPGFSPKLLIYRTSKLASGVPGRFSGSGSGTSYSLTIGTMEAEDVATYYCQQGIYMPLTVGAGTKLELKRA | – | no binding | no binding | 0.0005 | 404000 | 9 to 15 | 1.25
